Like-named read-outs stand apart in the source and are kept apart here.

These results are taken from US20050238685A1, “Method of binding a compound to a surface” (priority 2002, published 2005).

The conditions of data set [1]: class I: resisting 2% SDS at 100° C., class II: 60% ethanol; cited from earlier work.
The conditions of data set [2]: cited from earlier work.
For data set [3] the following is noted: at 50 μg ml^−1; cited from earlier work.
Data set [4] in a line: Different enzymes immobilized via SC3 hydrophobin on TEFLON, spectrophotometry at 412 and 435 nm. The format is biochemical. As to conditions: SC3-coated TEFLON; for function after storage: 4° C. in buffer solution. As for the experimental part: The surface was first coated with SC3 hydrophobin by immersion in the protein aqueous solution (0.3 mg/mL) during approximately 30 minutes. The obtained modified surface was then immersed in an aqueous enzyme solution during approximately 30 minutes. After each step, the TEFLON™ surface was rinsed with an adequate buffer solution. Activity of the immobilized enzymes was followed by spectrophotometry at 412 and 435 nm after immersion of the functionalized surface in the corresponding substrate solution. The optical density of the solution increases after the immersion of the functionalized surface and stays constant after its removal. […] The functionalized TEFLON® was stored at 4° C. in an Eppendorf tube containing a buffer solution.
(Biocatalysts, Wales; final concentration 2.1 mg/mL), lipase from Candida cylindracea (Biocatalysts, Wales; final concentration 0.25 mg/mL), porcine liver esterase (SIGMA; 41 U/mg of solid, final concentration 2.4 mg/mL), bovine pancreas trypsin (SIGMA; 8,750 U/mg of solid).

Data set [5] can be described thus: Circular dichroism of enzymes on binding to bare or hydrophobin-coated colloidal TEFLON. The format is physicochemical. As to conditions: bare colloidal TEFLON.
The nature of data set [6]: Esterase, lipase and trypsin on SC3-coated oil droplets, spectrophotometric substrate conversion. The format is biochemical. As to the method:
The sheets with and without immobilized enzyme were used in a chromogenic assay. A 1.5 ml cuvette was filled with 1 ml of a 5 mM 4-nitrophenyl acetate solution (esterase substrate), 5 mM Na-benzoyl-DL-arginine-p-nitroanilide (trypsin substrate), or 5 mM 1,2-di-O-decanoyl-rac-glycero-3-glutaric acid-resorufin labeled in the appropriate buffers. The cuvette was placed in the spectrophotometer and the reaction was started by placing the hydrophobin-coated sheets with or without immobilized enzyme in the cuvette parallel to the light beam. The light absorbance at the appropriate wavelength was followed in time. After one hour of incubation, the sheets were taken from the cuvette and the reaction in the cuvette was followed for an additional 24 hours. The sheets were washed with water and were transferred to a new cuvette with fresh substrate and the reaction was followed again. […] 400 μl of a 100 μg/ml solution of the mentioned enzymes was added to a 1 mm cuvette and a circular dichroism spectrum was recorded between 190 and 250 nm. To this solution, increasing concentrations of pure colloidal TEFLON™ or hydrophobin-coated TEFLON™ was added and changes were followed by recording CD-spectra. […] When TEFLON™ coated with hydrophobin is added to the enzyme solutions, the changes in CD signal (after correction for the hydrophobin signal) are less pronounced. […]

Data set [7] is classed as biochemical. As to the method:
The sheets were removed from the hydrophobin solution and were immediately washed with large amounts of water to remove any unbound hydrophobin (5×50 ml water for five minutes); these coatings are referred to as the α-helix state. Part of the sheets were boiled in a 2% SDS solution for ten minutes, after which the sheets were extensively washed with water; these coatings are referred to as the β-sheet state. The colloidal TEFLON™ was collected by gentle centrifugation (two minutes, 2000 rpm), the supernatant was removed and the TEFLON™ pellet was resuspended in 2 ml pure water followed by centrifugation. The TEFLON™ pellet was washed five times with water to remove all unbound hydrophobin.
The bare and hydrophobin-coated sheets (α-helix state and β-sheet state) were incubated in 2 ml of enzyme solution in 3 ml glass vials at 25° C. for two hours. The used enzyme solutions were 100 μg/ml of 60 kD esterase (porcine liver), 40 kD lipase (wheat germ), or 25 kD trypsin (bovine pancreas). The sheets were washed extensively with water to remove any unbound enzyme.
The sheets with and without immobilized enzyme were used in a chromogenic assay. A 1.5 ml cuvette was filled with 1 ml of a 5 mM 4-nitrophenyl acetate solution (esterase substrate), 5 mM Na-benzoyl-DL-arginine-p-nitroanilide (trypsin substrate), or 5 mM 1,2-di-O-decanoyl-rac-glycero-3-glutaric acid-resorufin labeled in the appropriate buffers. The cuvette was placed in the spectrophotometer and the reaction was started by placing the hydrophobin-coated sheets with or without immobilized enzyme in the cuvette parallel to the light beam. The light absorbance at the appropriate wavelength was followed in time. After one hour of incubation, the sheets were taken from the cuvette and the reaction in the cuvette was followed for an additional 24 hours. The sheets were washed with water and were transferred to a new cuvette with fresh substrate and the reaction was followed again. […] 400 μl of a 100 μg/ml solution of the mentioned enzymes was added to a 1 mm cuvette and a circular dichroism spectrum was recorded between 190 and 250 nm. To this solution, increasing concentrations of pure colloidal TEFLON™ or hydrophobin-coated TEFLON™ was added and changes were followed by recording CD-spectra. […] When TEFLON™ coated with hydrophobin is added to the enzyme solutions, the changes in CD signal (after correction for the hydrophobin signal) are less pronounced. […] Furthermore, oil droplets were coated with hydrophobin. Coating of oil droplets was achieved by emulsifying 100 μl of oil (mineral oil or paraffin oil) in 3 ml of water by sonication and adding 3 ml of an aqueous solution of hydrophobin (200 μg/ml). Alternatively, the oil was directly emulsified in the hydrophobin solution and 3 ml was added. […]

B1: cerato-ulmin: class II hydrophobin of Ophiostoma ulmi (protein, UniProt Q06153 26-100, looked up)
Class II hydrophobin CU: SDSYDPCTGLLQKSPQCCNTDILGVANLDCHGPPSVPTSPSQFQASCVADGGRSARCCTLSLLGLALVCTDPVGI
In the case of B1, the “solubility of assembled membranes” value in data set [1] was “readily dissociate in 60% ethanol and in 2% SDS”.

B2: SC3: class I hydrophobin of Schizophyllum commune (protein)
chain: GGHPGTTTPPVTTTVTVTTPPSTTTIAAGGTCTTGSLSCCNQVQSASSSPVTALLGLLGIVLSDLNVLVGISCSPLTVIGVGGSGCSAQTVCCENTQFNGLINIGCTPINIL
As to B2, the “water contact angle of coated TEFLON” value in data set [2] (TEFLON (110°) coated with hydrophobin) was 48 °. Moreover, the water contact angle is 36 ° in data set [2] (hydrophilic side of the membrane) and 110 ° in data set [2] (hydrophobic side of the membrane). In addition, the “maximal lowering of the water surface tension, from 72 to” value in data set [3] is 24 mJ m^−2.

B3: trypsin: bovine pancreas trypsin, 25 kD (protein)
chain: IVGGYTCGANTVPYQVSLNSGYHFCGGSLINSQWVVSAAHCYKSGIQVRLGEDNINVVEGNEQFISASKSIVHPSYNSNTLNNDIMLIKLKSAASLNSRVASISLPTSCASAGTQCLISGWGNTKSSGTSYPDVLKCLKAPILSDSSCKSAYPGQITSNMFCAGYLEGGKDSCQGDSGGPVVCSGKLQGIVSWGSGCAQKNKPGVYTKVCNYVSWIKQTIASN
In the case of B3, in data set [4], the “state of immobilized enzymes (denaturation, desorption)” value was “not denatured and are not desorbed from the surface”; the function after storage entry is “still functional after several weeks”. Also, the “structural change in CD-spectra upon binding” value in data set [5] is reported as “underwent structural changes”. For the same molecule, in data set [6], the “catalytic activity of immobilized enzyme” value is “still catalytically active”. Besides, in data set [7], the “activity and stability of enzyme attached to hydrophobin-coated sheets” value was “active and stable for up to one month”; the “activity of enzyme attached to bare sheets” value is given as “not active”.

B4: esterase: porcine liver esterase, 60 kD (protein)
chain: GQPASPPVVDTAQGRVLGKYVSLEGLAQPVAVFLGVPFAKPPLGSLRFAPPQPAEPWSFVKNTTSYPPMCCQDPVVEQMTSDLFTNGKERLTLEFSEDCLYLNIYTPADLTKRGRLPVMVWIHGGGLVLGGAPMYDGVVLAAHENVVVVAIQYRLGIWGFFSTGDEHSRGNWGHLDQVAALHWVQENIANFGGDPGSVTIFGESAGGESVSVLVLSPLAKNLFHRAISESGVALTVALVRKDMKAAAKQIAVLAGCKTTTSAVFVHCLRQKSEDELLDLTLKMKFLTLDFHGDQRESHPFLPTVVDGVLLPKMPEEILAEKDFNTVPYIVGINKQEFGWLLPTMMGFPLSEGKLDQKTATSLLWKSYPIANIPEELTPVATDKYLGGTDDPVKKKDLFLDLMGDVVFGVPSVTVARQHRDAGAPTYMYEFQYRPSFSSDKKPKTVIGDHGDEIFSVFGFPLLKGDAPEEEVSLSKTVMKFWANFARSGNPNGEGLPHWPMYDQEEGYLQIGVNTQAAKRLKGEEVAFWNDLLSKEAAKKPPKIKHAEL
For B4, in data set [4], the “state of immobilized enzymes (denaturation, desorption)” value is “not denatured and are not desorbed from the surface”; the function after storage result is recorded as “still functional after several weeks”. Moreover, the “structural change in CD-spectra upon binding” value in data set [5] is listed as “underwent structural changes”. The “catalytic activity of immobilized enzyme” value in data set [6] is “still catalytically active”. In addition, in data set [7], the “activity and stability of enzyme attached to hydrophobin-coated sheets” value is “active and stable for up to one month”; the “activity of enzyme attached to bare sheets” value is “not active”.

B5: cryparin: class II hydrophobin of Cryphonectria parasitica (protein, UniProt P52753 23-118, looked up)
Class II hydrophobin CRP: GGGGGGSGSGSGSGSGSGSGGGSTTYTACSSTLYSEAQCCATDVLGVADLDCETVPETPTSASSFESICATSGRDAKCCTIPLLGQALLCQDPVGL
As for B5, the “solubility of assembled membranes” value in data set [1] is “readily dissociate in 60% ethanol and in 2% SDS”.

B6: alkaline phosphatase: human placental alkaline phosphatase (Roche) (protein)
chain: IIPVEEENPDFWNREAAEALGAAKKLQPAQTAAKNLIIFLGDGMGVSTVTAARILKGQKKDKLGPEIPLAMDRFPYVALSKTYNVDKHVPDSGATATAYLCGVKGNFQTIGLSAAARFNQCNTTRGNEVISVMNRAKKAGKSVGVVTTTRVQHASPAGTYAHTVNRNWYSDADVPASARQEGCQDIATQLISNMDIDVILGGGRKYMFRMGTPDPEYPDDYSQGGTRLDGKNLVQEWLAKRQGARYVWNRTELMQASLDPSVTHLMGLFEPGDMKYEIHRDSTLDPSLMEMTEAALRLLSRNPRGFFLFVEGGRIDHGHHESRAYRALTETIMFDDAIERAGQLTSEEDTLSLVTADHSHVFSFGGYPLRGSSIFGLAPGKARDRKAYTVLLYGNGPGYVLKDGARPDVTESESGSPEYRQQSAVPLDEETHAGEDVAVFARGPQAHLVHGVQEQTFIAHVMAFAACLEPYTACDLAPPAGTTD
As to B6, the “activity of enzyme attached to bare wells” value is “not active”.
